Patent US9981005B2, “Methods for increasing DISC1 in a subject with schizophrenia or bipolar disorder by an antagonist inhibiting DISC1 binding to FBXW7” (The University Court of the University of Glasgow, priority 2013, dated 2018)
Where no end group is shown, it is not given here. [ ]: non-standard residue; d: D form. pT = C[C@@H](OP(=O)(O)O)[C@H](N)C(=O)O; NMeE = CN[C@@H](CCC(=O)O)C(=O)O; pS = N[C@@H](COP(=O)(O)O)C(=O)O; NMeD = CN[C@@H](CC(=O)O)C(=O)O

Target: FBXW7 (Homo sapiens, UniProt Q969H0)
Experiment: Peptides immobilised on membranes screened for the ability to bind FBXW7
Type: binding
Description: Peptides derived from DISC1 and containing the putative phospho-degron motif were immobilised on membranes and screened for the ability to bind FBXW7. […] (SEQ ID NO: 114).
The 7-mer peptide P-pT-P-P-G-pS-H (SEQ ID NO: 21) was used as the basis for further investigation. L- and D-forms of aspartic acid and glutamic acid (upper and lower case letters respectively) as well as N-methylated versions of each (designated “m”) were incorporated at positions 198 and 202.

FBXW7, sequence (Q969H0 whole entry): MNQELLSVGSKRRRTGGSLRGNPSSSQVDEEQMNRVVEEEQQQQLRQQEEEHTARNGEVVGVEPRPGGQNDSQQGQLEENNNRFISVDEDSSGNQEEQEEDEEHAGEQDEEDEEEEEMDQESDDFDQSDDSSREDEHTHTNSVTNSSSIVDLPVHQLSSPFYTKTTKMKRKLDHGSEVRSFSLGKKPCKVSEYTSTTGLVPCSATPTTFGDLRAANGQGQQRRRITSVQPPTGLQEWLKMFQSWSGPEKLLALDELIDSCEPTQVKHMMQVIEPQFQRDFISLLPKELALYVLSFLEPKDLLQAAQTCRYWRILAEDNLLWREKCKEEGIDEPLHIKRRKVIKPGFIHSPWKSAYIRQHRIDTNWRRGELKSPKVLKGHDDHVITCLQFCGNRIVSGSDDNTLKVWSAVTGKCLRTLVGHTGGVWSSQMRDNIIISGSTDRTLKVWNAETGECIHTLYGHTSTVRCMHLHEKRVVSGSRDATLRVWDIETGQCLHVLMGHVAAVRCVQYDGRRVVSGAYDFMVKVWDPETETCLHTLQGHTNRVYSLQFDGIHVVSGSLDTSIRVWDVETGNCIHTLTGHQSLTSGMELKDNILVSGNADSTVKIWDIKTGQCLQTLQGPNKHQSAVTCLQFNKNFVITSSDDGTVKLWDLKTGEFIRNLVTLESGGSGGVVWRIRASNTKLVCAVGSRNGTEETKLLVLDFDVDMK

Substance	binding to FBXW7
G-A-P-P-G-mE-H (GAPPG[NMeE]H) [Peptide A22]	retain or have improved binding to FBXW7
G-d-P-A-G-mE-K (G[dD]PAG[NMeE]K) [Peptide A192]	retain or have improved binding to FBXW7
G-d-P-P-G-mE [Peptide A5]	retain or have improved binding to FBXW7
G-d-P-P-G-mE-H (G[dD]PPG[NMeE]H) [Peptide 173]	retain or have improved binding to FBXW7
G-d-P-P-Q-mE-H (G[dD]PPQ[NMeE]H) [Peptide A12]	retain or have improved binding to FBXW7
G-d-P-P-a-mE-k (G[dD]PP[dA][NMeE][dK]) [Peptide A196]	retain or have improved binding to FBXW7
G-d-P-P-q-mE-H (G[dD]PP[dQ][NMeE]H) [Peptide A13]	retain or have improved binding to FBXW7
G-d-P-a-G-mE-k (G[dD]P[dA]G[NMeE][dK]) [Peptide A193]	retain or have improved binding to FBXW7
G-d-P-p-a-mE-H (G[dD]P[dP][dA][NMeE]H) [Peptide A170]	retain or have improved binding to FBXW7
G-d-P-p-a-mE-h (G[dD]P[dP][dA][NMeE][dH]) [Peptide A171]	retain or have improved binding to FBXW7
G-d-p-P-G-mE-H (G[dD][dP]PG[NMeE]H) [Peptide A180]	retain or have improved binding to FBXW7
G-d-p-p-G-mE-H (G[dD][dP][dP]G[NMeE]H) [Peptide A172]	retain or have improved binding to FBXW7
G-d-p-p-G-mE-h (G[dD][dP][dP]G[NMeE][dH]) [Peptide A174]	retain or have improved binding to FBXW7
G-d-p-p-a-mE-H (G[dD][dP][dP][dA][NMeE]H) [Peptide A173]	retain or have improved binding to FBXW7
G-d-p-p-a-mE-h (G[dD][dP][dP][dA][NMeE][dH]) [Peptide A175]	retain or have improved binding to FBXW7
G-e-P-P-G-mE (G[dE]PPG[NMeE]) [Peptide A25]	retain or have improved binding to FBXW7
G-e-P-P-G-mE-H (G[dE]PPG[NMeE]H) [Peptide 147]	retain or have improved binding to FBXW7
G-mD-P-P-G-mE (G[NMeD]PPG[NMeE]) [Peptide A45]	retain or have improved binding to FBXW7
G-mD-P-P-Q-mE-H (G[NMeD]PPQ[NMeE]H) [Peptide A52]	retain or have improved binding to FBXW7
G-mD-P-p-G-mE-H (G[NMeD]P[dP]G[NMeE]H) [Peptide A56]	retain or have improved binding to FBXW7
G-mE-P-P-q-mE-H (G[NMeE]PP[dQ][NMeE]H) [Peptide A73]	retain or have improved binding to FBXW7
G-mE-P-p-G-mE-H (G[NMeE]P[dP]G[NMeE]H) [Peptide A76]	retain or have improved binding to FBXW7
GPEVPPTPPGSHSAFTSSFSFIRL (listed as Homo sapiens)	Detectable binding
L-d-P-P-G-mE-H (L[dD]PPG[NMeE]H) [Peptide A98]	retain or have improved binding to FBXW7

Substance	binding to FBXW7
L-e-P-P-G-mE-H (L[dE]PPG[NMeE]H) [Peptide A137]	retain or have improved binding to FBXW7
L-mD-P-P-G-mE-H (L[NMeD]PPG[NMeE]H) [Peptide A58]	retain or have improved binding to FBXW7
P-A-P-P-G-mD-H (PAPPG[NMeD]H) [Peptide A102]	retain or have improved binding to FBXW7
P-A-P-P-G-mE-H (PAPPG[NMeE]H) [Peptide A82]	retain or have improved binding to FBXW7
P-E-P-P-G-d-H (PEPPG[dD]H) [Peptide 16]	retain or have improved binding to FBXW7
P-E-P-P-G-mD (PEPPG[NMeD]) [Peptide A144]	retain or have improved binding to FBXW7
P-E-P-P-G-mD-H (PEPPG[NMeD]H) [Peptide 64]	retain or have improved binding to FBXW7
P-E-P-P-Q-mD-H (PEPPQ[NMeD]H) [Peptide A151]	retain or have improved binding to FBXW7
P-P-G-mE-H (PPG[NMeE]H) [Peptide A189]	retain or have improved binding to FBXW7
P-P-pT-P-P-G-pS-H (PP[pT]PPG[pS]H)	retain the ability to bind FBXW7
P-d-P-P-G-mE (P[dD]PPG[NMeE]) [Peptide A85]	retain or have improved binding to FBXW7
P-d-P-P-G-mE-H (P[dD]PPG[NMeE]H) [Peptide 82]	retain or have improved binding to FBXW7
P-d-P-P-G-mE-K (P[dD]PPG[NMeE]K) [Peptide A194]	retain or have improved binding to FBXW7
P-d-P-P-G-mE-k (P[dD]PPG[NMeE][dK]) [Peptide A195]	retain or have improved binding to FBXW7
P-d-p-P-G-mE-H (P[dD][dP]PG[NMeE]H) [Peptide A97]	retain or have improved binding to FBXW7
P-e-P-P-G-mD-H (P[dE]PPG[NMeD]H) [Peptide A101]	retain or have improved binding to FBXW7
P-e-P-P-G-mE (P[dE]PPG[NMeE]) [Peptide A124]	retain or have improved binding to FBXW7
P-e-P-P-G-mE-H (P[dE]PPG[NMeE]H) [Peptide 55]	retain or have improved binding to FBXW7
P-e-P-P-Q-mE-H (P[dE]PPQ[NMeE]H) [Peptide A131]	retain or have improved binding to FBXW7
P-e-P-P-q-mE-H (P[dE]PP[dQ][NMeE]H) [Peptide A132]	retain or have improved binding to FBXW7
P-e-P-p-G-mE-H (P[dE]P[dP]G[NMeE]H) [Peptide A135]	retain or have improved binding to FBXW7
P-e-p-P-G-mE-H (P[dE][dP]PG[NMeE]H) [Peptide A136]	retain or have improved binding to FBXW7
P-pT-P-P-G-pS-H [A80] (P[pT]PPG[pS]H) [Peptide A80]	retain or have improved binding to FBXW7
P-pT-P-P-G-pS-H [A100] (P[pT]PPG[pS]H) [Peptide A100]	retain or have improved binding to FBXW7

Substance	binding to FBXW7
P-pT-P-P-G-pS-H [A119] (P[pT]PPG[pS]H) [Peptide A119]	retain or have improved binding to FBXW7
P-pT-P-P-G-pS-H [A139] (P[pT]PPG[pS]H) [Peptide A139]	retain or have improved binding to FBXW7
P-pT-P-P-G-pS-H [A185] (P[pT]PPG[pS]H) [Peptide A185]	retain or have improved binding to FBXW7
P-pT-P-P-G-pS-H [P-pT-P-P-G-pS-H] (P[pT]PPG[pS]H)	retain the ability to bind FBXW7
P-pT-P-P-G-pS-H-S (P[pT]PPG[pS]HS)	retain the ability to bind FBXW7
a-d-P-P-G-mE-h ([dA][dD]PPG[NMeE][dH]) [Peptide A164]	retain or have improved binding to FBXW7
a-d-P-P-a-mE-H ([dA][dD]PP[dA][NMeE]H) [Peptide A166]	retain or have improved binding to FBXW7
a-d-P-P-a-mE-h ([dA][dD]PP[dA][NMeE][dH]) [Peptide A165]	retain or have improved binding to FBXW7
a-d-P-P-a-mE-k ([dA][dD]PP[dA][NMeE][dK]) [Peptide A197]	retain or have improved binding to FBXW7
a-d-P-p-G-mE-H ([dA][dD]P[dP]G[NMeE]H) [Peptide A161]	retain or have improved binding to FBXW7
a-d-P-p-a-mE-h ([dA][dD]P[dP][dA][NMeE][dH]) [Peptide A168]	retain or have improved binding to FBXW7
a-d-p-P-G-mE-H ([dA][dD][dP]PG[NMeE]H) [Peptide A162]	retain or have improved binding to FBXW7
a-d-p-p-G-mE-H ([dA][dD][dP][dP]G[NMeE]H) [Peptide A163]	retain or have improved binding to FBXW7
a-d-p-p-a-mE-h ([dA][dD][dP][dP][dA][NMeE][dH]) [Peptide A169]	retain or have improved binding to FBXW7
a-e-P-P-G-mE-H ([dA][dE]PPG[NMeE]H) [Peptide A130]	retain or have improved binding to FBXW7
a-mD-P-P-G-mE-H ([dA][NMeD]PPG[NMeE]H) [Peptide A51]	retain or have improved binding to FBXW7
a-mE-P-P-G-mE-H ([dA][NMeE]PPG[NMeE]H) [Peptide A71]	retain or have improved binding to FBXW7
d-P-P-G-mE-H ([dD]PPG[NMeE]H) [Peptide A86]	retain or have improved binding to FBXW7
e-P-P-G-mE-H ([dE]PPG[NMeE]H) [Peptide A26]	retain or have improved binding to FBXW7
l-d-P-P-G-mE-H ([dL][dD]PPG[NMeE]H) [Peptide A99]	retain or have improved binding to FBXW7
l-e-P-P-G-mE-H ([dL][dE]PPG[NMeE]H) [Peptide A138]	retain or have improved binding to FBXW7
l-mE-P-P-G-mE-H ([dL][NMeE]PPG[NMeE]H) [Peptide A79]	retain or have improved binding to FBXW7
p-d-P-P-G-mE-H ([dP][dD]PPG[NMeE]H) [Peptide A181]	retain or have improved binding to FBXW7
p-d-P-P-G-mE-h ([dP][dD]PPG[NMeE][dH]) [Peptide A184]	retain or have improved binding to FBXW7
